Results published in patent US20200022997A1, “ORAL ANTICANCER PRODRUGS, THEIR PREPARATION METHODS AND APPLICATIONS” (Seoul National university R&DB Foundation, priority 2018, published 2020).
Like-named read-outs stand apart in the source and are kept apart here. *1 amine or outer side, *2 acyl side, *3 side chain or, on linkers, in order; H or OH if unused. Where a SMILES comes first, the peptide text is derived from it. [ ]: non-standard residue; d: D form. The star is where a group is joined. Doxorubicin(3'-N) = COc1cccc2c1C(=O)c1c(O)c3c(c(O)c1C2=O)C[C@@](O)(C(=O)CO)C[C@@H]3O[C@H]1C[C@H](N*)[C@H](O)[C@H](C)O1; PABC = O=C(OCc1ccc(N[*:1])cc1)[*:2]

Legend:
[1] = Toxicity evaluation: hematological and biochemical parameters and histology after one month of administration; conditions: 2.5 mg/kg
[2] = rat, in vivo; for Cmax: Sprague Dawley
Description: (§1) Quantitative analysis was performed by measuring the fluorescence intensity in plasma, and using a standard curve to determine concentration (FIG. 9).

[3] = test system: MDA-MB-231 human breast cancer cell line; experiment: MTT cytotoxicity assay combined with radiation (4 Gy) and/or caspase inhibitor Z-VAD-FMK; assay type: cell-based; conditions: by itself, without radiation
Description: The degree of cytotoxicity of DEVD-S-DOX was assessed using an in vitro MTT assay and combined radiation therapy in the MDA-MB-231 human breast cancer cell line. The MDA-MB-231 cell line was irradiated with radiation and the expression of caspase-3 was evaluated. Western blot (FIG. 6A) and a cellular caspase-3 activity assay (FIG. 6B) confirmed that the expression of caspase-3 increased over time.
Next, the cancer cells were cultured in a 96-well microplate at the density of 5×10^4 cell/well in DMEM (10% FBS) medium for 24 hours, and then treated with DEVD-S-DOX or 5 μM Doxorubicin. Some of the test groups were also treated with Z-VAD-FMK, which is a caspase inhibitor. Then cells were irradiated with 4 Gy of radiation, and after 24 and 48 hours, cell viability was assessed against the controls using an MTT assay (FIG. 7). […] This confirmed that caspase-3 was expressed via radiation therapy in the cancer cells, which then activated DEVD-S-DOX and led to a synergistic cytotoxic effect.

in vivo = conditions: Sprague Dawley, rat
Description: as §1

[4] = test system: human breast cancer cells MDA-MB-231; experiment: MTT cytotoxicity assay with or without human recombinant caspase-3; conditions: read-out: IC50 cytotoxicity (MTT); pretreated with caspase-3 (500 ng/mL), 48 hours
Description: The cytotoxicity of DEVD-S-DOX in human breast cancer cells MDA-MB-231 was assessed using MTT assay with or without the treatment with human recombinant caspase-3. After the cancer cells were placed on a 96-well microplate at the concentration of 5×10^4 cell/well and cultured in DMEM (10% FBS) media for 24 hours, doxorubicin, DEVD-S-DOX, and DEVD-S-DOX, pre-treated with caspase-3 (500 ng/mL), were added at concentrations ranging from 0.01-100 μM, and further cultured for 48 hours. After that, 10 μL of MTT agent were added to each well and cultured for 2 hours at 37° C. until a blue precipitate forms. At this point, 100 μL of detergent agent was added and cultured for 4 hours at room temperature. Optical density was measured in each well at 570 nm to determine cell viability.

MDA-MB-436 xenograft = experiment: MDA-MB-436 xenograft, daily oral dosing with or without olaparib; assay type: in vivo, female NSG SCID mouse; conditions: monotherapy, 50 mg/kg intraperitoneal, 5 days on/2 days off for two weeks
Description: Human breast cancer MDA-MB-436 cells were transplanted into a female NSG SCID mouse, and when the cancer tumor size reached 100-150 mm^3, 3 mg/kg of DEVD-S-DCX/DCK (based on the docetaxel content), was orally administered daily. 50 mg/kg of olaparib was administered by intraperitoneal injection daily for the first five days of every week for two weeks (5 days on/2 days off). In addition, a test group without olaparib was daily orally administered 3 mg/kg DEVD-S-DCX/DCK (based on the docetaxel content).

Question: What does the source list for `COc1cccc2c1C(=O)c1c(O)c3c(c(O)c1C2=O)C[C@@](O)(C(=O)CO)C[C@@H]3O[C@H]1C[C@H](NC(=O)OCc2ccc(NC(=O)[C@H](CC(=O)O)NC(=O)[C@@H](NC(=O)[C@H](CCC(=O)O)NC(=O)[C@H](CC(=O)O)NC(=O)CNC(=O)[C@H](CCCCN)NC(C)=O)C(C)C)cc2)[C@H](O)[C@H](C)O1` [DEVD-S-DOX, Ac-KGDEVD-PABC-Doxorubicin] (Ac-KGDEVD[PABC]-{Doxorubicin(3'-N)})?
Answer: BASO [1]: 1.0 ± 0.5%; MONO ([1]; normal range 1.0-5.0): 6.8 ± 1.7%; WBC ([1]; normal range 4.0-15.0): 12.8 ± 5.4 m/mm^3; RBC ([1]; normal range 6.0-11.0): 7.1 ± 1.4 M/mm^3; Segment ([1]; normal range 10.0-30.0): 18.2 ± 0.7%; MCH ([1]; normal range 13.0-22.0): 16.4 ± 1.8 pg; Hb ([1]; normal range 14.0-18.0): 11.4 ± 1.3 g/dL; MCHC ([1]; normal range 24.0-40.0): 33.4 ± 3.8 g/dL; Hct ([1]; normal range 35.0-45.0): 35.1 ± 7.2%; MCV ([1]; normal range 35.0-50.0): 49.2 ± 7.2 fL; Lympho ([1]; normal range 70.0-81.0): 71.0 ± 4.9%; Platelet ([1]; normal range 600-1000): 1008 ± 392 m/mm^3; EOS ([1]; normal range <10.0): 2.8 ± 1.4%; Cmax ([2]; iv, 1 mg/kg): 3370 ± 310 ng/mL; Cmax ([2]; po, 10 mg/kg): 72 ± 33 ng/mL; BA (bioavailability) ([2]; po, 10 mg/kg): negligible bioavailability; cytotoxicity (MTT) [3]: did not show any noticeable cytotoxicity; AUC(0-inf) (in vivo; iv, 1 mg/kg): 3370 ± 250 ng·h/mL; AUC(0-t) (in vivo; iv, 1 mg/kg): 3110 ± 290 ng·h/mL; MRT (in vivo; iv, 1 mg/kg): 2.01 ± 0.28 h; AUC(0-inf) (in vivo; po, 10 mg/kg): 130 ± 60 ng·h/mL; AUC(0-t) (in vivo; po, 10 mg/kg): 100 ± 50 ng·h/mL; MRT (in vivo; po, 10 mg/kg): 1.18 ± 0.03 h; Tmax (in vivo; po, 10 mg/kg): 1 h; bioavailability (in vivo; po, 10 mg/kg): 0.45 ± 0.22%; IC50 [4]: 1780 nM

Question: Which tumor growth suppression (MDA-MB-436 xenograft) does the source give for `O=C(c1cc(Cc2n[nH]c(=O)c3ccccc23)ccc1F)N1CCN(C(=O)C2CC2)CC1` [olaparib] here?
Answer: ineffective
